This is an account of results in patent US20260053920A1 (published 2026).

In assay [1] the target is T1, IMP2 peptide on HLA-A*02:01 (human).
T1 peptide: NLSALGIFST
Kind of assay: stated without data.

Assay [2] deals with T1, IMP2 peptide on HLA-A*02:01. Put plainly: multimer staining.
Assay [3] addresses T2, BST2 peptide on HLA-A*02:01 (human).
T2 peptide: LLLGIGILVL
Put plainly: multimer staining.

B1: MEL58 (TCR)
alpha TRAV23DV6 TRAJ54 CDR3: CAARGAQKLVF
beta TRBV6-5 TRBJ1-6 CDR3: CASSYVGLGSPLHF
As to B1, the binding result in assay [1] is recorded as “recognises”.

B2: MEL8 (TCR, V domains shown)
Valpha: QKEVEQNSGPLSVPEGAIASLNCTYSDRGSQSFFWYRQYSGKSPELIMSIYSNGDKEDGRFTAQLNKASQYVSLLIRDSQPSDSATYLCAVQKLVFGTGTRLLVSP
Vbeta: NAGVTQTPKFQVLKTGQSMTLQCAQDMNHEYMSWYRQDPGMGLRLIHYSVGAGITDQGEVPNGYNVSRSTTEDFPLRLLSAAPSQTSVYFCASSYSFTEATYEQYFGPGTRLTVT
Regarding B2, the binding result in assay [2] and in assay [3] was “recognises” in each case.

B3: MEL25 (TCR)
alpha TRAV8-6 TRAJ47 CDR3: CAVSDNGNKLVF
beta TRBV12-4 TRBJ2-7 CDR3: CASSWAGPVEQYF
Regarding B3, the binding result in assay [2] and in assay [3] was “recognises” throughout.

B4: MEL56 (TCR)
alpha TRAV12-3 TRAJ35 CDR3: CAMSVGFGNVLHC
beta TRBV27 TRBJ2-7 CDR3: CASSLGLAGNEQYF
On to B4, for which the binding result in assay [1] is “recognises”.

B5: CLL9 (TCR)
alpha TRAV12-2*01 TRAJ9 CDR3: CAVGAGGFKTIF
beta TRBV2*02 TRBJ2-7 CDR3: CASSESPLSGNEQYF
With B5, the binding result is recorded as “recognises” in assay [2] and “no recognition” in assay [3].

B6: MEL11 (TCR)
alpha TRAV12-2*01 TRAJ30 CDR3: CAVNYEDDKIIF
beta TRBV9 TRBJ2-7 CDR3: CASSVGVQGSWEQYF
As for B6, the binding result in assay [2] and in assay [3] was “recognises” in each case.
